Source: patent US20240409645A1 (DUALYX, published 2024)
Read-outs that look alike come from different tables or passages of the source.

T1: human IL-2Rβ (human, UniProt P14784 27-240, limits assumed)
T1 construct: recombinant protein, coated or immobilised; also called hu IL-2R; IL-2R beta
T1 sequence: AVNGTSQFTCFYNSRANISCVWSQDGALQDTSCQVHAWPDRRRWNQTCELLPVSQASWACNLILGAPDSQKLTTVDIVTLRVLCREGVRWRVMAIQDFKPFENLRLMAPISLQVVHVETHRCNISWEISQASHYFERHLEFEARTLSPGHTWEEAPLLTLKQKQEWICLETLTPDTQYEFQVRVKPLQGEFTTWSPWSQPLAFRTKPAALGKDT

T2: human IL-2 receptor (IL-2Rα/IL-2Rβ/γc) (human, UniProt P01589 22-272; P14784 27-551; P31785 23-369)
T2 sequence 1: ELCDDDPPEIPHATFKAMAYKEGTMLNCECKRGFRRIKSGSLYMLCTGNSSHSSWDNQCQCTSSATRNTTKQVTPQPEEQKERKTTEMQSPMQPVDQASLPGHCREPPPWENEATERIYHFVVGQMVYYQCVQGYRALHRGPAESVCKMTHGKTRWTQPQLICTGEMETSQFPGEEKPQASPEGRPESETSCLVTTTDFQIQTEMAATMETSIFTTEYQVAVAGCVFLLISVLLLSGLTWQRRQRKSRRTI
T2 sequence 2: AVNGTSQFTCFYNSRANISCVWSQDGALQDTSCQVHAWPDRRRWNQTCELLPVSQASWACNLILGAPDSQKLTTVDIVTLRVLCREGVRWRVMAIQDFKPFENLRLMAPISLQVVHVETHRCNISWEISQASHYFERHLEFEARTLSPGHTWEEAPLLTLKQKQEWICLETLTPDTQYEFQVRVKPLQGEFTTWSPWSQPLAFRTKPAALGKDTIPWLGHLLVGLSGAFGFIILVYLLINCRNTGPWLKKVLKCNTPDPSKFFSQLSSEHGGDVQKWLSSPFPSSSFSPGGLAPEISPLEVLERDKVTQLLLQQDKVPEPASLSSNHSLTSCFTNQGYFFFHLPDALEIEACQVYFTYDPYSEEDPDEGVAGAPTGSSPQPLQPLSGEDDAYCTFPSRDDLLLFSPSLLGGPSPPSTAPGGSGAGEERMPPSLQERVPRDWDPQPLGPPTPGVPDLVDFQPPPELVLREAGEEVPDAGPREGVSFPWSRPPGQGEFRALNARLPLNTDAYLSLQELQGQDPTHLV
T2 sequence 3: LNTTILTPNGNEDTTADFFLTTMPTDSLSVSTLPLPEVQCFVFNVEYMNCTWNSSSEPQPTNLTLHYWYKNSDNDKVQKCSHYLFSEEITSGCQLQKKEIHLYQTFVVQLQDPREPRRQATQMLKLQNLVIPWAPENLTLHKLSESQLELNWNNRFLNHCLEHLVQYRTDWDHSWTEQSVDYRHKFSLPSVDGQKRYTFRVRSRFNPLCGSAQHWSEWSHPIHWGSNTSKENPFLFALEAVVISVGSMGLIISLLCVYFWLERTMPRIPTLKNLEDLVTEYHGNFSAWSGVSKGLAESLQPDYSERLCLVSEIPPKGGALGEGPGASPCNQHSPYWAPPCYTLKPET


What was measured:
human IL-2Rβ [1] = molecular target: T1, human IL-2Rβ; experiment: SPR, P.E. off-rate
Experimental: SPR was performed to determine dissociation rates using Biacore 3000 instrument (GE Healthcare). Briefly, human and mouse IL-2R proteins were immobilized on carboxylmethyl dextran sensor chip (CM5) at approximately 2500 RUs using amine coupling in acetate buffer (GE Healthcare). The VHH-containing P.E. were loaded with a flow rate of 30 uL/min and the off-rates were measured over a 120s period.

human IL-2Rβ [2] = molecular target: T1, human IL-2Rβ; experiment: P.E. ELISA, coated protein
Experimental: In a binding ELISA, human or mouse IL-2Rα, IL-2Rβ and IL-2Rγ proteins were coated directly on maxisorp microtiter plates overnight at 4° C. Free binding sites were blocked using 4% Marvel in PBS for 1 hour. Next, 1:5 dilution of P.E. in 1% Marvel/PBS were added to wells and incubated for 1 hour. […] Binding specificity was determined based on O.D. at 450 nm values compared to negative controls.

[3] = molecular target: T2, human IL-2 receptor (IL-2Rα/IL-2Rβ/γc); experiment: cell-based or functional assay
[4] = molecular target: T2, human IL-2 receptor (IL-2Rα/IL-2Rβ/γc); experiment: cell-based or functional assay; remark: listed apart in the source

| Binder | koff (human IL-2Rβ [1]) | P.E. binding ELISA OD (human IL-2Rβ [2]) | further results |
| --- | --- | --- | --- |
| FJ1427_P035MP02E03 (VHH, soluble VHH in periplasmic extract; also called clone nr) VHH: EVQLVESGGGSVQTGGSLRLSCVVSGSHFISDVMGWYRQVPGKQRELVADMADGGSVKYGDSVKGRFTILRDSVKNTVTLQMSSLNPEDTGVYYCKAGLWITGRHFDYWGQGTQVTVTS | 0.000169 s⁻¹ | 0.242 OD450 nm | – |
| DC00068 (other) chain 1: EVQLVESGGGLVQTGGSLRLSCAASGGTFSRDAMAWFRQVPGKEREFVALISWSGATTNYADSVKGRFAISRDNGKNTVYLQMNRLKPADTAIYYCAADRRPMGSRSYFEPTEYDDWGQGTQVTVSSGGGGSGGGGSGGGGSQVQLVESGGGLVQPGGSLRLSCATSGFTFRNNFMSWVRQAPGKGLEWVSTISYGGESTTYAESVKGRFTISRDNAKNTLYLQMNNLKPEDTAVYYCAKATSYDSIRSGSRGQGTQVTVSSDKTHTCPPCPAPEAAGGPSVFLFPPKPKDTLMISRTPEVTCVVVDVSHEDPEVKFNWYVDGVEVHNAKTKPREEQYNSTYRVVSVLTVLHQDWLNGKEYKCKVSNKALGAPIEKTISKAKGQPREPQVYTLPPSRDELTKNQVSLTCLVKGFYPSDIAVEWESNGQPENNYKTTPPVLDSDGSFLLYSKLTVDKSRWQQGNVFSCSVMHEALHNHYTQKSLSLSPGK chain 2: QVQLVESGGGLVQAGGSLTLSCAAPGRTFGTDVVGWFRQAPGKEREFVASISRSGDGIYYDDSVKGRFTISRNNAWNTVNLQMNSLKVEDTAVYYCAAGDGWSTYDYWGQGTQVTVSSGGGGSGGGGSGGGGSQVQLVESGGGLVQPGGSLRLSCATSGFTFRNNFMSWVRQAPGKGLEWVSTISYGGESTTYAESVKGRFTISRDNAKNTLYLQMNNLKPEDTAVYYCAKATSYDSIRSGSRGQGTQVTVSSGGGGSGGGGSGGGGSEVQLVESGGGLVQTGGSLRLSCAASGGTFSRDAMAWFRQVPGKEREFVALISWSGATTNYADSVKGRFAISRDNGKNTVYLQMNRLKPADTAIYYCAADRRPMGSRSYFEPTEYDDWGQGTQVTVSSGGGGSGGGGSGGGGSDKTHTCPPCPAPEAAGGPSVFLFPPKPKDTLMISRTPEVTCVVVDVSHEDPEVKFNWYVDGVEVHNAKTKPREEQYNSTYRVVSVLTVLHQDWLNGKEYKCKVSNKALGAPIEKTISKAKGQPREPQVYTLPPSRDELTKNQVSLTCLVKGFYPSDIAVEWESNGQPENNYKTTPPVLDSDGSFFLYSRLTVDKSRWQQGNVFSCSVMHEALHNHYTQKSLSLSPGK | – | – | EC50 (nM) pSTAT5, NK, human PBMCs [3]: 0.0936 nM; EC50 (nM) pSTAT5, Treg, human PBMCs [3]: 0.00189 nM; Fold Max signal (% pSTAT5+) Treg/NK [3]: 6 fold; Max signal (% pSTAT5+), NK [3]: 14 % pSTAT5+; Max signal (% pSTAT5+), Treg [3]: 83 % pSTAT5+; fold EC50 NK/Treg [3]: 49 fold; EC50 (nM) pSTAT5, NK, human PBMCs [4]: 0.00127 nM; EC50 (nM) pSTAT5, Treg, human PBMCs [4]: 0.425 pM; Fold Max signal (% pSTAT5+) Treg/NK [4]: 9 fold; Max signal (% pSTAT5+), NK [4]: 3.39 % pSTAT5+; Max signal (% pSTAT5+), Treg [4]: 30 % pSTAT5+; fold EC50 NK/Treg [4]: 3 fold |
| FJ1427_P035MP02F03 (VHH, soluble VHH in periplasmic extract; also called clone nr) VHH: EVQLVESGGGLVQAGGSLRLSCAASGGTFSSYAMGWFRQAPGKEREFVAATTRGGGRTMYAVSTEGRFTCSRDNAKNTVYLLMNSLKPEDTAVYYCAAMTSYYSGTYYPDSSDFDIWGQGTQVTVSS | 0.000828 s⁻¹ | 0.212 OD450 nm | – |
| FJ1427 P035MP02H04 (VHH, soluble VHH in periplasmic extract; also called clone nr) VHH: QVQLVESGGGLVQAGDSLRLSCATSGLTFSSYALGWFRQAPGKKREFVAATTRGGGRTMYAVSTEGRFTCSRDNDKNTVYLLMNSLKPKDTAVYYCAAMTSYYSGTYYPDSSDFDIWGQGTQVTVSS | 0.00051 s⁻¹ | 0.376 OD450 nm | – |
| FJ1427_P035MP02E04 (VHH, soluble VHH in periplasmic extract; also called clone nr) VHH: EVQLVESGGGLVQAGGSLRLSCAASGGTFSSYAMGWFRQAPGKEREFVAATTRGGGRTMYAVSTEGRFTCSRDNAKNTVYLQMNSLKPKDTAIYYCAAMTSYYSGTYYPDSSDFDIWGQGTQVTVSS | 0.000716 s⁻¹ | 0.255 OD450 nm | – |
| FJ1427_P035MP02D03 (VHH, soluble VHH in periplasmic extract; also called clone nr) VHH: QVQLVESGGGLVQAGGPLRLSCAASGGTFSSYAMGWFRQAPGKEREFVAATTRGGGRTMYAVSTEGRFTCSRDNAKNTVYLLMNSLKPEDTAVYYCAAMTSYYSGTYYPDSSDFDIWGQGTQVTVSS | 0.000226 s⁻¹ | 0.286 OD450 nm | – |
| FJ1427_P035MP02B04 (VHH, soluble VHH in periplasmic extract; also called clone nr) VHH: EVQLVESGGGLVQAGGSLGLSCAASGGTFSSYAMGWFRQAPGKEREFVAATTRGGGRTMYAVSTEGRFTCSRDNAKNTVYLQMNSLKPKDTAIYYCAAMTSYYSGTYYPDSSDFDIWGQGTQVTVSS | 0.000449 s⁻¹ | 0.375 OD450 nm | – |
| FJ1427_P035MP02A06 (VHH, soluble VHH in periplasmic extract; also called clone nr) VHH: QVQLQESGGGLVQAGGSLRLSCAASGGTFSSYAMGWFRQAPGKEREFVAATTRGGGRTMYAVSTEGRFTCSRDNDKNTVYLLMNSLKPKDTAVYYCAAMTSYYSGTYYPDSSDFDIWGQGTQVTVSS | 0.000484 s⁻¹ | 2.55 OD450 nm | – |
| FJ1427 P035MP02C01 (VHH, soluble VHH in periplasmic extract; also called clone nr; 99) VHH: QVQLVESGGGLVQPGGSLGLSCAASGFTFDNYAMSWVRQAPGKGLEWVSSITGAGRGTHYADSVKGRFTISRDNAKNTLYLQMNSLKPEDTAVYYCAKYSSSTYYPPTPARGTDYRGPGTQVTVSS | 0.000789 s⁻¹ | 0.7 OD450 nm | – |
| FJ1427 P035MP02E06 (VHH, soluble VHH in periplasmic extract; also called 15-MP02E06; clone nr) VHH: QVQLVESGGGSVQPGGSLRLSCAASGFTFSNYAMSWVRQAPGKGLEWVASITGFGRGTDYADSVKGRFTISRDNAEDTLYLQMNSLKPEDTAVYYCAKYSSSTYYPPTPARGRDYRGQGTQVTVSS | 0.00169 s⁻¹ | 0.581 OD450 nm | – |
| FJ1427_P035MP02A03 (VHH, soluble VHH in periplasmic extract; also called clone nr) VHH: QVQLVESGGGLVQPGGSLRLSCAASGFTFSNYAMSWVRQAPGKGLEWVSSITGAGRGTYYAESVKGRFTISRDNDKNTLYLQMNSLKPEDTAVYYCAKYDSSTFYPPTPARGIADRGQGTRVTVSS | 0.000571 s⁻¹ | 0.207 OD450 nm | – |
| FJ1427_P035MP02A02 (VHH, soluble VHH in periplasmic extract; also called clone nr) VHH: QVQLVESGGGLVQPGGSLRLSCAASGFTFDNYAMTWVRQAPGKGLEWVSSITGAGRGTHYADSVKGRFTISRDNAKNTLYLQVNSLKPEDTAVYYCARYSSSTYYPTTPVRGTDYRGQGTQVTVSS | 0.00262 s⁻¹ | 0.223 OD450 nm | – |
| FJ1427 P035MP02C06 (VHH, soluble VHH in periplasmic extract; also called clone nr) VHH: QLQLVESGGGLVQPGGSLELSCAASGFTFSNYAMSWVRQAPGKGLEWVSSITGFGRGTDYADSVKGRFTISRDNAKNTLYLQMNSLKPEDTAVYYCARYSSSTYYPPTPARGRDYRGQGTQVTVSS | 0.00217 s⁻¹ | 0.351 OD450 nm | – |
| FJ1427 P035MP02D05 (VHH, soluble VHH in periplasmic extract; also called clone nr) VHH: QVQLVESGGGLVQPGESLGLSCAASGFTFSNYAMSWVRQAPGKGLEWVSSITGAGRGTDYADSVKGRFTISRDNAKNTLYLQMNSLKPEDTAVYYCAKYSSGTYYPPTPVRGTDYRGQGTQVTVSS | 0.00279 s⁻¹ | 0.118 OD450 nm | – |
